The source of these data is patent EP1151102B1.

Where two headings read alike, the source gives them in different places.

In assay [1] the target is human leptin receptor (short form), membrane-bound, from stably transfected CHO cells (human) (UniProt P48357). Kind of assay: 125I-Leptin competition on membranes of CHO cells expressing human leptin receptor; IC50 vs WT.
Assay [2] has as its target chimeric leptin receptor-EPO receptor (OBR-EPOR) on 32D-OBECA cells (human; murine) (UniProt P48357). Description: cell-based or functional assay.
For assay [3], the target named is human leptin receptor (short form), membrane-bound, from stably transfected CHO cells (human) (UniProt P48357). Description: 125I-Leptin competition on membranes of CHO cells expressing human leptin receptor; IC50 vs WT. The source holds these as a separate data set.

As for rHu-Leptin 1-145 (ligand), in assay [1], the Receptor binding Rel. to WT. is 1.3 rel. to WT. The Bio activity Rel. to WT. in assay [2] is 0.14 rel. to WT.
In the case of “rHu-Leptin 1-145 expressed with the erythropoietin signal peptide (ligand)”, in assay [1], the Receptor binding Rel. to WT. was 0.6 rel. to WT. In addition, in assay [2], the Bio activity Rel. to WT. is 0.36 rel. to WT.
As to rHu-Leptin 1-146 (wild type) (ligand), in assay [1], the Receptor binding Rel. to WT. is 1 rel. to WT. Further, in assay [2], the Bio activity Rel. to WT. was 1 rel. to WT and the Bioactivity Rel. to WT. is 1 rel. to WT.
As to “rHu-Leptin 1-146 expressed with the erythropoietin signal peptide and human albumin prosequence (ligand)”, the Receptor binding Rel. to WT. in assay [1] was 3.5 rel. to WT. The Bio activity Rel. to WT. in assay [2] is 1.8 rel. to WT.
For “rHu-Leptin 1-146 expressed with the native human erythropoietin signal peptide (ligand)”, the Receptor binding Rel. to WT. in assay [1] is 1 rel. to WT. Moreover, in assay [2], the Bio activity Rel. to WT. is 0.95 rel. to WT.
In the case of “rHu-Leptin 1-146, site 4 (QKV > NKV) (ligand)”, the Receptor binding Rel. to WT. in assay [1] was 1.7 rel. to WT. The Bioactivity Rel. to WT. in assay [2] was 0.73 rel. to WT.
The matching figures for “rHu-Leptin 1-146, site 5 (KVQ > NVT) (ligand)”: 1.7 rel. to WT and 0.05 rel. to WT.
In the same order, the values of “rHu-Leptin 1-146, site 7 (QDD > NDT) (ligand)” are 1.25 rel. to WT and 0.04 rel. to WT.
Take “rHu-Leptin 1-146, site 8 (DDT > NDT) (ligand)”: the Receptor binding Rel. to WT. in assay [1] is 1.2 rel. to WT. The Bioactivity Rel. to WT. in assay [2] was 1.2 rel. to WT.
On to “rHu-Leptin 1-146, site 23a (DIS > NIT) (ligand)”, for which, in assay [2], the Bio-activity Rel. to WT. was 0.53 rel. to WT and the Bioactivity Rel. to WT. was 0.53 rel. to WT.
On to “rHu-Leptin 1-146, site 23a (DIS > NIT), erythropoietin signal peptide (ligand)”, for which, in assay [1], the Receptor binding Rel. to WT. is 0.5 rel. to WT. In addition, in assay [2], the Bio-activity Rel. to WT. is 0.79 rel. to WT.
Regarding “rHu-Leptin 1-146, site 25 (SHT > NHT) (ligand)”, the Receptor binding Rel. to WT. in assay [1] is 0.4 rel. to WT. In addition, the Bioactivity Rel. to WT. in assay [2] was 0.02 rel. to WT.
The matching figures for “rHu-Leptin 1-146, site 26 (HTQ > NTT) (ligand)”: 1.5 rel. to WT and 0.01 rel. to WT.
As to “rHu-Leptin 1-146, site 27 (TQS > NQT) (ligand)”, the Receptor binding Rel. to WT. in assay [1] was 0.7 rel. to WT. Also, in assay [2], the Bioactivity Rel. to WT. was 0.13 rel. to WT.
Turning to “rHu-Leptin 1-146, site 29 (SVS > NVT) (ligand)”, the Receptor binding Rel. to WT. in assay [1] was 0.6 rel. to WT. Besides, the Bioactivity Rel. to WT. in assay [2] is 0.5 rel. to WT.
For the substance “rHu-Leptin 1-146, site 33 (KQK > NQT) (ligand)”, the Receptor binding Rel. to WT. in assay [1] was 0.9 rel. to WT. Also, the Bioactivity Rel. to WT. in assay [2] was 0.04 rel. to WT.
The matching figures for “rHu-Leptin 1-146, site 35 (KVT > NVT) (ligand)”: 0.5 rel. to WT and 0.13 rel. to WT.
Take “rHu-Leptin 1-146, site 37 (TGL > NGT) (ligand)”: the Receptor binding Rel. to WT. in assay [1] is 0.4 rel. to WT. For the same substance, the Bioactivity Rel. to WT. in assay [2] is 0.043 rel. to WT.
As to “rHu-Leptin 1-146, site 38 (GLD > NLT) (ligand)”, the Receptor binding Rel. to WT. in assay [1] is 0.2 rel. to WT. In addition, the Bioactivity Rel. to WT. in assay [2] is 0.036 rel. to WT.
In the case of “rHu-Leptin 1-146, site 43 (PGL > NGT) (ligand)”, the Receptor binding Rel. to WT. in assay [1] is 1.5 rel. to WT. Also, in assay [2], the Bioactivity Rel. to WT. was 0.014 rel. to WT.
The matching figures for “rHu-Leptin 1-146, site 44 (GLH > NLT) (ligand)”: 2 rel. to WT and 0.78 rel. to WT.
In the same order, the values of “rHu-Leptin 1-146, site 45 (CHP > NHT) (ligand)” are 0.5 rel. to WT and 0.08 rel. to WT.
For the substance “rHu-Leptin 1-146, site 46 (HPI > NPT) (ligand)”, in assay [1], the Receptor binding Rel. to WT. was 0.11 rel. to WT. Moreover, the Bioactivity Rel. to WT. in assay [2] is 0.27 rel. to WT.
Regarding “rHu-Leptin 1-146, site 47 (PIL > NIT) (ligand)”, the Receptor binding Rel. to WT. in assay [1] was 0.66 rel. to WT. Further, in assay [2], the Bio-activity Rel. to WT. was 0.84 rel. to WT and the Bioactivity Rel. to WT. is 0.84 rel. to WT.
For the substance “rHu-Leptin 1-146, site 48 (ILT > NLT) (ligand)”, the Receptor binding Rel. to WT. in assay [1] is 0.8 rel. to WT. Also, in assay [2], the Bio-activity Rel. to WT. was 0.53 rel. to WT and the Bioactivity Rel. to WT. was 0.53 rel. to WT.
As for “rHu-Leptin 1-146, site 67 (SMP > NMT) (ligand)”, in assay [1], the Receptor binding Rel. to WT. is 0.8 rel. to WT. For the same substance, in assay [2], the Bioactivity Rel. to WT. is 0.52 rel. to WT.
The matching figures for “rHu-Leptin 1-146, site 68 (MPS > NAT) (ligand)”: 0.8 rel. to WT and 0.036 rel. to WT.
On to “rHu-Leptin 1-146, site 69 (PSR > NST) (ligand)”, for which the Receptor binding Rel. to WT. in assay [1] is 0.6 rel. to WT. In addition, in assay [2], the Bio-activity Rel. to WT. was 1.1 rel. to WT and the Bioactivity Rel. to WT. is 1.1 rel. to WT.
Turning to “rHu-Leptin 1-146, site 70 (SRN > NRT) (ligand)”, the Receptor binding Rel. to WT. in assay [1] was 1 rel. to WT. Moreover, the Bioactivity Rel. to WT. in assay [2] was 1 rel. to WT.
In the case of “rHu-Leptin 1-146, site 71 (RNV > NNT) (ligand)”, the Receptor binding Rel. to WT. in assay [1] was 1.9 rel. to WT. For the same substance, the Bioactivity Rel. to WT. in assay [2] is 0.3 rel. to WT.
The matching figures for “rHu-Leptin 1-146, site 72 (NVI > NVT) (ligand)”: 1.7 rel. to WT and 0.26 rel. to WT.
In the same order, the values of “rHu-Leptin 1-146, site 73 (VIQ > NIT) (ligand)” are 8 rel. to WT and 0.01 rel. to WT.
In the case of “rHu-Leptin 1-146, site 77 (SND > NNT), expressed with the erythropoietin signal peptide (ligand)”, the Receptor binding Rel. to WT. in assay [1] was 2.2 rel. to WT. Further, in assay [2], the Bioactivity Rel. to WT. is < 0.02 rel. to WT.
Take “rHu-Leptin 1-146, site 92 (FSK > NST) (ligand)”: the Receptor binding Rel. to WT. in assay [1] was 1.6 rel. to WT. In assay [2], the Bio-activity Rel. to WT. is 0.8 rel. to WT and the Bioactivity Rel. to WT. was 0.67 rel. to WT.
In the case of “rHu-Leptin 1-146, site 93 (SKS > NKT) (ligand)”, the Bioactivity Rel. to WT. in assay [2] was 1.1 rel. to WT.
For the substance “rHu-Leptin 1-146, site 97 (HLP > NLT) (ligand)”, the Bioactivity Rel. to WT. in assay [2] was 1.1 rel. to WT.
On to “rHu-Leptin 1-146, site 99 (PWA > NWT) (ligand)”, for which the Receptor binding Rel. to WT. in assay [1] was 0.9 rel. to WT. In addition, the Bioactivity Rel. to WT. in assay [2] was 0.5 rel. to WT.
The matching figures for “rHu-Leptin 1-146, site 100a (PWAS > SNAT) (ligand)”: 0.6 rel. to WT and 0.9 rel. to WT.
For “rHu-Leptin 1-146, site 100b (WAS > NAS) (ligand)”, the Receptor binding Rel. to WT. in assay [1] was 0.7 rel. to WT. For the same substance, in assay [2], the Bioactivity Rel. to WT. is 1.46 rel. to WT.
Regarding “rHu-Leptin 1-146, site 100c (WAS > NAT) (ligand)”, the Receptor binding Rel. to WT. in assay [1] is 0.45 rel. to WT. Moreover, the Bioactivity Rel. to WT. in assay [2] was 0.81 rel. to WT.
The matching figures for “rHu-Leptin 1-146, site 100d (PWAS > ANAT) (ligand)”: 1.45 rel. to WT and 0.26 rel. to WT.
Take “rHu-Leptin 1-146, site 100e (WAS > TAS) (ligand)”: the Receptor binding Rel. to WT. in assay [1] is > 1.9 rel. to WT. Moreover, the Bioactivity Rel. to WT. in assay [2] was 0.83 rel. to WT.
“rHu-Leptin 1-146, site 101 (ASG > NST) (ligand)”: in assay [1], the Receptor binding Rel. to WT. is 0.7 rel. to WT. Moreover, the Bioactivity Rel. to WT. in assay [2] is 0.33 rel. to WT.
As to “rHu-Leptin 1-146, site 102 (SGL > NGT) (ligand)”, the Receptor binding Rel. to WT. in assay [3] is 0.5 rel. to WT. Moreover, the Receptor binding Rel. to WT. in assay [1] was 0.6 rel. to WT. In assay [2], the Bio-activity Rel. to WT. is 0.66 rel. to WT and the Bioactivity Rel. to WT. is 0.85 rel. to WT.
Take “rHu-Leptin 1-146, site 103 (GLE > NLT) (ligand)”: in assay [1], the Receptor binding Rel. to WT. was 1 rel. to WT. For the same substance, the Bioactivity Rel. to WT. in assay [2] was 0.73 rel. to WT.
With “rHu-Leptin 1-146, site 115 (EAS > NAT) (ligand)”, the Receptor binding Rel. to WT. in assay [1] was 0.9 rel. to WT. In addition, the Bioactivity Rel. to WT. in assay [2] was 0.006 rel. to WT.
In the same order, the values of “rHu-Leptin 1-146, site 116 (ASG > NST) (ligand)” are 0.9 rel. to WT and 0.56 rel. to WT.
For “rHu-Leptin 1-146, site 117 (SGY > NGT) (ligand)”, in assay [1], the Receptor binding Rel. to WT. is 1.9 rel. to WT. In assay [2], the Bioactivity Rel. to WT. was 0.01 rel. to WT.
In the same order, the values of “rHu-Leptin 1-146, site 118 (GYS > NYT) (ligand)” are 0.8 rel. to WT and 3.8 rel. to WT.
The matching figures for “rHu-Leptin 1-146, site 119 (YST > NST) (ligand)”: 0.8 rel. to WT and 0.02 rel. to WT.
The matching figures for “rHu-Leptin 1-146, site 120 (STE > NTT) (ligand)”: 0.7 rel. to WT and 0.01 rel. to WT.
As for “rHu-Leptin 1-146, site 141 (DLS > NLT) (ligand)”, the Receptor binding Rel. to WT. in assay [1] is 0.3 rel. to WT. Besides, the Bioactivity Rel. to WT. in assay [2] is 1 rel. to WT.
